Data: the supplement of paper PMC10567573

B1: RHOBTB3 (parent)
chain: QLQSMPSRELASMNLDIVDLLKKA
B2: KLHL14 (parent)
chain: CAVLDDSIYLVGGYSWSMGAYKSS

Variants of: B1
Assay: protein stability index of a GFP-peptide fusion (GPS, HEK-293T) (PSI 1-6); higher = more stable
Conditions: c terminus: a fixed tail appended
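Also: lentivirally expressed fusions sorted by FACS into six bins by GFP to DsRed ratio, PSI derived from sequencing read proportions per bin multiplied by bin number.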

Protein stability index of substitutions, site by site:
A24: M 3.39 | T 3.95 | F 3.41 | E 4.56 | W 4.13 | L 3.56 | S 3.47 | N 4.14 | V 3.34 | R 3.11 | I 2.98 | Y 3.35 | G 3.92 | H 3.77 | C 3.14 | Q 3.49 | D 4.65 | P 3.92 | K 3.54
K23: W 1.3 | Y 2.71

Variants of: B2
Assay: as above
Conditions: c terminus: a fixed tail appended

Protein stability index of substitutions, site by site:
V11: T 1.83 | W 1.7 | N 2.2 | H 1.88 | I 3.25 | R 1.24 | G 1.93 | C 1.91 | K 2.1 | S 2.21 | D 1.94 | P 1.56 | Q 1.79 | M 3.05 | F 1.6 | E 2.33 | Y 2.44 | L 1.72 | A 1.94
S17: Y 2.9 | W 3.53 | N 1.53 | I 1.92 | G 2.69 | M 1.49 | V 1.96 | E 2.25 | L 3.11 | P 1.54 | T 2.27 | H 1.98 | Q 2.79 | K 2.48 | D 1.52 | A 3.94
G19: P 1.96 | F 3.41 | E 1.22 | A 2.33 | K 2.23 | H 3.16 | I 2.9 | L 3.64 | Q 1.62 | R 2.98 | N 2.06 | C 3
M18: A 2.89 | H 2.5 | Q 2.67 | L 2.48 | D 2.09 | N 1.46 | I 3.21 | P 1.62 | E 2.53 | S 1.73 | K 1.91 | Y 2.48 | R 2.11 | F 2.48 | C 2.26 | W 3.11 | T 2.15 | G 1.68
Y14: S 1.83 | E 1.69 | F 2.66 | G 1.2 | R 1.74 | T 1.44 | V 2.19 | W 2.93 | K 1.73 | N 1.53 | A 1.55 | M 2.42 | H 1.83 | L 1.86 | Q 2.03 | C 2.15 | D 2.23 | P 1.91
D5: A 2.24 | Y 1.54 | F 3.77 | E 2.7 | V 2.29 | P 2.72 | M 4.24 | L 3.33 | I 2.19 | W 3.27 | G 1.41 | K 3.02 | N 4.88 | S 2
I8: Y 2.96 | W 1.8 | C 3.23 | E 1.13 | F 2.55 | R 1.64 | L 2.23 | V 2.52 | H 1.93 | G 1.22 | M 2.62 | D 2.22 | S 1.73 | K 1.77 | T 3.78 | P 1.93 | A 2.44 | N 1.65 | Q 1.11
G12: K 2.13 | Y 1.55 | I 2.47 | E 3.21 | Q 2.89 | P 2.79 | C 3.07 | R 2.52 | D 2.39 | L 2.9 | M 2.24 | S 1.46 | F 2.23 | A 3.1 | V 2.65 | N 3.82 | H 2.92
Y9: P 2.22 | R 3.35 | N 1.56 | W 2.43 | D 2.37 | T 2.18 | G 1.28 | E 2.28 | C 3.86 | S 1.51 | H 2.3 | A 1.66 | K 1.36 | Q 1.62 | L 3.26 | M 3.37 | I 1.86
S7: E 1.99 | I 2.49 | F 2.81 | V 2.46 | P 2.54 | T 1.52 | C 3.58 | M 2.99 | R 1.84 | L 3.32 | A 2.04 | N 2.59 | G 3.23 | H 2.24 | Q 3.47 | Y 3.75
L4: K 2.18 | C 1.78 | R 2.33 | H 2.12 | V 1.79 | N 3.26 | W 1.6 | M 2.96 | P 1.74 | D 2.19 | T 2.78 | S 1.49 | I 2.15 | A 1.36 | Y 2.19 | G 1.55
G13: A 3.61 | H 3.56 | K 1.51 | S 1.95 | V 1.27 | F 2.97 | N 2.32 | Y 1.73 | R 2.08 | M 3.5 | Q 2.49 | I 2.92 | W 3.56 | T 3.26 | C 2.36 | D 1.98 | P 1.73
D6: I 3.34 | S 2.61 | R 3.76 | W 3.66 | P 2.97 | V 1.97 | K 1.35 | Y 1.86 | H 2.9 | Q 1.95 | M 4.25
W16: V 1.03 | Y 2.02 | E 2.53 | M 3.09 | R 1.78 | K 1.94 | S 2.01 | A 1.78 | H 1.79 | F 2.87 | P 2.38 | I 2.35 | Q 1.8 | G 1.95 | T 1.74 | N 1.89 | D 2.14
L10: P 1.1 | H 1.59 | F 3.26 | C 3.76 | N 1.98 | T 1.96 | D 1.94 | E 1.33 | Y 2.08 | K 2.05 | I 1.68 | A 1.55 | G 2.23 | M 1.95 | W 3.36 | R 2.45 | S 1.83 | Q 1.23
A2: P 1.61 | Q 1.93 | F 2.84 | I 2.13 | H 1.85 | N 2.05 | K 2.85 | R 1.3 | L 2.18 | E 2.37 | W 2.5 | S 1.59 | D 1.04 | Y 2.32 | M 3.27 | G 1.04
V3: T 2.94 | G 1.48 | A 2.03 | P 2.58 | M 2.9 | W 2.71 | E 2.77 | S 2.3 | I 2.56 | Y 1.57 | D 1.57 | F 2.85 | N 2.57 | L 2.21 | H 1.67 | Q 2.39 | R 2.4
S15: W 2.25 | E 1.03 | Y 1.87 | I 2.56 | T 2.38 | A 3.83 | P 2.77 | M 4.83 | G 2.88 | F 2.58 | K 2.83 | Q 2.44 | N 2.28 | R 1.86 | H 1.65 | V 3.31 | D 2.34
C1: Y 1.82 | Q 1.73 | L 2.09 | I 2.83 | S 1.7 | K 2.42 | F 3.37 | T 1.43 | H 1.74 | A 1.72 | G 2 | W 2.63 | D 2.42 | P 2.28 | R 2.03 | M 1.5 | E 1.3 | N 1.74
